Experimental findings from article PMC7959842 (2021) are described below.

The experiment has as its target C3b (UniProt P01024 749-1663; P01024 749-1663, biotin (EZ-Link Maleimide-PEG2-Biotin, after 1 mM DTT) where immobilised on streptavidin chips; none where amine-coupled). The experiment is described as follows: SPR; biotin-coupled C3b.

Positions count from the first letter of the chain named.

C3b, sequence (P01024 23-667, chain 1 of 2): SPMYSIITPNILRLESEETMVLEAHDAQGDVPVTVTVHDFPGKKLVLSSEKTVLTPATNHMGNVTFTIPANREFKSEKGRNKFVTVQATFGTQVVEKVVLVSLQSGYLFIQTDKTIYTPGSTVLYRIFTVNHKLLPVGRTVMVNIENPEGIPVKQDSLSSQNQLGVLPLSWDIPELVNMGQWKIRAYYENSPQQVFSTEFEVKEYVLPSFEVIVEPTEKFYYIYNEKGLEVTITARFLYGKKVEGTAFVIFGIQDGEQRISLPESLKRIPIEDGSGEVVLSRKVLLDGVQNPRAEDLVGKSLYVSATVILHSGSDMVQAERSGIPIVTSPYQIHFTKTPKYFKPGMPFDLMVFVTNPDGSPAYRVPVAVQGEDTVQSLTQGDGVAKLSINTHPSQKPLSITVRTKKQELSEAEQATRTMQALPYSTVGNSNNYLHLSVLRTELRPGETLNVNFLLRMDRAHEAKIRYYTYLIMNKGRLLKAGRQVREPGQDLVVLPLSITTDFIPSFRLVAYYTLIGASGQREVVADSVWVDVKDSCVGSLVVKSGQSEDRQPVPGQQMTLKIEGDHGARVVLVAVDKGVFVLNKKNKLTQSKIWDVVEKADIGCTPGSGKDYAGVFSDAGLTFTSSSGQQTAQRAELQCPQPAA
C3b, sequence (P01024 749-1663, chain 2 of 2): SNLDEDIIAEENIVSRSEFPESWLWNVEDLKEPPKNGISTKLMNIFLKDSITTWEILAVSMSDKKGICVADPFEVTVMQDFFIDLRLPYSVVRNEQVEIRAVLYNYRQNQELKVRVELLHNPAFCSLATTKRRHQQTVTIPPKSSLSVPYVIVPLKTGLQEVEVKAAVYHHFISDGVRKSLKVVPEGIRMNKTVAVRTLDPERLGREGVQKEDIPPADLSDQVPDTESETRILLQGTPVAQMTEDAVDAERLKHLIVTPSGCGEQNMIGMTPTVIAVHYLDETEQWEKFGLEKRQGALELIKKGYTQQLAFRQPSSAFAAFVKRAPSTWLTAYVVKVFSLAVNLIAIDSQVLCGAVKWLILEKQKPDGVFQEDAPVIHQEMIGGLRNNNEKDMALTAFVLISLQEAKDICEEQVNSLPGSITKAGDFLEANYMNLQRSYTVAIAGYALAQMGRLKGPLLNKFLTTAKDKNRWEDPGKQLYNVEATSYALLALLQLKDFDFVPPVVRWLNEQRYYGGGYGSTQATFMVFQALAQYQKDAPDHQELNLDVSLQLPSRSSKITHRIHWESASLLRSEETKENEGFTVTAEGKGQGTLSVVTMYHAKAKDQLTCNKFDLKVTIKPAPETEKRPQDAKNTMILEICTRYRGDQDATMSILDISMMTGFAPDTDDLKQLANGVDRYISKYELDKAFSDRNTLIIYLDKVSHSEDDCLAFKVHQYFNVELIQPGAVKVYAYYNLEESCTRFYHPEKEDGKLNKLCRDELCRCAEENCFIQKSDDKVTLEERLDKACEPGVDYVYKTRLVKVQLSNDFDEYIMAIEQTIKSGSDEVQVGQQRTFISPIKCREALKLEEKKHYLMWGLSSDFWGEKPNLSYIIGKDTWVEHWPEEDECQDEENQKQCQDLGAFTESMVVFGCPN

B1: FH18-20 (domain or fragment)
chain: TSCVNPPTVQNAYIVSRQMSKYPSGERVRYQCRSPYEMFGDEEVMCLNGNWTEPPQCKDSTGKCGPPPPIDNGDITSFPLSVYAPASSVEYQCQNLYQLEGNKRITCRNGQWSEPPKCLHPCVISREIMENYNIALRWTAKQKLYSRTGESVEFVCKRGYRLSSRSHTLRTTCWDGKLEYPTCAKR
On to B1, for which the Kd was 9.9 µM.

B2: FH18-20(LV) (domain or fragment)
chain: B1 chain with S146L
Turning to B2, the Kd was 5.6 µM.

B3: FH18-20(LA) (domain or fragment)
chain: B1 chain with S146L, V152A
Take B3: the Kd was 5.8 µM.

B4: FH18-20(SA) (domain or fragment)
chain: B1 chain with V152A
Molecule B4 had a Kd of 10 µM.

B5: FHR-1 (factor H-related protein 1, FHR-1*B, wild-type) (natural protein)
chain: EATFCDFPKINHGILYDEEKYKPFSQVPTGEVFYYSCEYNFVSPSKSFWTRITCTEEGWSPTPKCLRLCFFPFVENGHSESSGQTHLEGDTVQIICNTGYRLQNNENNISCVERGWSTPPKCRSTDTSCVNPPTVQNAYIVSRQMSKYPSGERVRYQCRSPYEMFGDEEVMCLNGNWTEPPQCKDSTGKCGPPPPIDNGDITSFPLSVYAPASSVEYQCQNLYQLEGNKRITCRNGQWSEPPKCLHPCVISREIMENYNIALRWTAKQKLYLRTGESAEFVCKRGYRLSSRSHTLRTTCWDGKLEYPTCAKR
Take B5: the dissociation constant (Kd) stood at 0.6 µM.
